Test results published in the supplement of paper PMC9170038.

Tested on: K4 kissing-loop RNA reporter
Experiment: apparent KD of K4 kissing-loop reporter; higher = weaker reporter binding
Conditions: Eterna round: R107
Protocol: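 RNA-MaP round R107: designed RNA switches with theophylline, tryptophan, arginine or FMN aptamers are transcribed on-chip within common flanks. They are titrated with a labelled K4 kissing-loop RNA reporter in RNA-MaP buffer (100 mM Tris pH 7.5, 80 mM KCl, 4 mM MgCl2), without ligand or with the indicated ligand. Median apparent KD per design.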

[1] = input ligand: theophylline 20 uM
[2] = input ligand: tryptophan 2.4 mM
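Also: bound reporter read as fluorescence of individual clusters on recovered sequencing chips by microscopy, with normalized cluster intensities fitted with a binding model.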

UUAUUAUAUUGUAAUGAUAUAGAAACCGAAGGAGCGACAUAAAAGUCAGGUAGGUCGCGGUGUACUCAGUGAUGUUGAGAGUAUU [JR_SSArginiA_Sub013]
apparent KD of K4 kissing-loop reporter (input ligand: FMN 200 uM): 141 nM | apparent KD of K4 kissing-loop reporter (input ligand: arginine 13.2 mM): 265 nM | apparent KD of K4 kissing-loop reporter (input ligand: none): 172 nM | apparent KD of K4 kissing-loop reporter [1]: 271 nM | apparent KD of K4 kissing-loop reporter [2]: 100 nM

UUCUAACACACCGAUACCAGAGCCCAGUGAUGUUGGGCCUAGGUCGGAUGCUCACUGACGCUCCCUUGGCAGCGGUGGGCUAACC [Arreisve]
apparent KD of K4 kissing-loop reporter (input ligand: FMN 200 uM): 127 nM | apparent KD of K4 kissing-loop reporter (input ligand: arginine 13.2 mM): 112 nM | apparent KD of K4 kissing-loop reporter (input ligand: none): 116 nM | apparent KD of K4 kissing-loop reporter [1]: 110 nM | apparent KD of K4 kissing-loop reporter [2]: 114 nM

UUCUACGUGCAAGGAUAUCCAUACGCUGCUAAGCGGGUAGCGAUAUAUGGAGUGAUGUUCCAUGUAGGAGAAGGUGCACUGUCCU [Rieser]
apparent KD of K4 kissing-loop reporter (input ligand: FMN 200 uM): 144 nM | apparent KD of K4 kissing-loop reporter (input ligand: arginine 13.2 mM): 295 nM | apparent KD of K4 kissing-loop reporter (input ligand: none): 348 nM | apparent KD of K4 kissing-loop reporter [1]: 253 nM | apparent KD of K4 kissing-loop reporter [2]: 242 nM

UUCUCUCAGGCACGCGAGUGAUGUUCGCGGCGAGGACCGGUACGGCCGCCACUCGCGCCUGAGAGAGGUUAUCAAAGAUAGCCUU [whbob_SS_tryp_A]
apparent KD of K4 kissing-loop reporter (input ligand: FMN 200 uM): 163 nM | apparent KD of K4 kissing-loop reporter (input ligand: arginine 13.2 mM): 92.3 nM | apparent KD of K4 kissing-loop reporter (input ligand: none): 94.7 nM | apparent KD of K4 kissing-loop reporter [1]: 186 nM | apparent KD of K4 kissing-loop reporter [2]: 208 nM

UUCUUGAUGGAAACAUCGAGGAUCACUGAUACCAGUAUCGAUAGAUACCCUUGGCAGCAGUGUCGGUGGUCACGAGUGAUGUUCG [Ex Theophylline A K4 12]
apparent KD of K4 kissing-loop reporter (input ligand: FMN 200 uM): 718 nM | apparent KD of K4 kissing-loop reporter (input ligand: arginine 13.2 mM): 731 nM | apparent KD of K4 kissing-loop reporter (input ligand: none): 811 nM | apparent KD of K4 kissing-loop reporter [1]: 719 nM | apparent KD of K4 kissing-loop reporter [2]: 787 nM

UUCUUGAUGGAAACAUCGAGGAUUACUGAUACCAGUAUCGAUAGAUACCCUUGGCAGCAGUAUCGGUGAUCACGAGUGAUGUUCG [Ex Theophylline A K4 11]
apparent KD of K4 kissing-loop reporter (input ligand: FMN 200 uM): 669 nM | apparent KD of K4 kissing-loop reporter (input ligand: arginine 13.2 mM): 576 nM | apparent KD of K4 kissing-loop reporter (input ligand: none): 785 nM | apparent KD of K4 kissing-loop reporter [1]: 757 nM | apparent KD of K4 kissing-loop reporter [2]: 607 nM

UUUAAAUAUAGUGAUGUUAUAUAACAAUGACGAGGACCGGUACGGCCGCCACUCGAGAGAGAUAAUGGUCUUACAAAUGUAAGUU [AstrosSSTryA#9]
apparent KD of K4 kissing-loop reporter (input ligand: FMN 200 uM): 567 nM | apparent KD of K4 kissing-loop reporter (input ligand: arginine 13.2 mM): 646 nM | apparent KD of K4 kissing-loop reporter (input ligand: none): 793 nM | apparent KD of K4 kissing-loop reporter [1]: 822 nM | apparent KD of K4 kissing-loop reporter [2]: 481 nM

UUUAGGAACUGAGGAUAUUCGAAGAAAUAUAGUGAUGUUAUAUAAGGAGGAGGAGGGAGGGAGGAAGGAGAAGGCAGAAGAGGAG [ExFMNB.E]
apparent KD of K4 kissing-loop reporter (input ligand: FMN 200 uM): 368 nM | apparent KD of K4 kissing-loop reporter (input ligand: arginine 13.2 mM): 243 nM | apparent KD of K4 kissing-loop reporter (input ligand: none): 246 nM | apparent KD of K4 kissing-loop reporter [1]: 330 nM | apparent KD of K4 kissing-loop reporter [2]: 248 nM

UUUAUAAAGUCGGCCGCCACUGGAUUUAUAUUUGUUUAAUCUGGAUCAAAGUGAUGUUUUGAGUCCAGGACCGGGACAUUUGUUA [JR_ExcTryptoB_Sub002]
apparent KD of K4 kissing-loop reporter (input ligand: FMN 200 uM): 125 nM | apparent KD of K4 kissing-loop reporter (input ligand: arginine 13.2 mM): 123 nM | apparent KD of K4 kissing-loop reporter (input ligand: none): 124 nM | apparent KD of K4 kissing-loop reporter [1]: 135 nM | apparent KD of K4 kissing-loop reporter [2]: 232 nM

UUUCGUUGAAGUGAUACCAGACUUGAAAGUGAUGUUUUCCAAUAAAUUAAAUUAUUAGCUGUCCCUUGGCAGCACAGUUUAUUUA [JR_ExcTheophyB_Sub006]
apparent KD of K4 kissing-loop reporter (input ligand: FMN 200 uM): 205 nM | apparent KD of K4 kissing-loop reporter (input ligand: arginine 13.2 mM): 345 nM | apparent KD of K4 kissing-loop reporter (input ligand: none): 301 nM | apparent KD of K4 kissing-loop reporter [1]: 389 nM | apparent KD of K4 kissing-loop reporter [2]: 186 nM

UUUGGUUGUGGUGUUGAUUAGGGAGCGGAAGGAGCGCCGAGGAGGGCAGGUAGGUCGCCGGAAUGUAGUGAUGUUGCAUAGAGGU [ExArgA.Ad]
apparent KD of K4 kissing-loop reporter (input ligand: FMN 200 uM): 325 nM | apparent KD of K4 kissing-loop reporter (input ligand: arginine 13.2 mM): 277 nM | apparent KD of K4 kissing-loop reporter (input ligand: none): 198 nM | apparent KD of K4 kissing-loop reporter [1]: 603 nM | apparent KD of K4 kissing-loop reporter [2]: 341 nM

UUUGUAUAGGGAAGGAGCGUGAAUGAUAAAGAAUAUAGUGAUGUUAUAUAGAAGAAAGAAUCACAGGUAGGUCGCCCGGAGGAGG [SSArgB.H]
apparent KD of K4 kissing-loop reporter (input ligand: FMN 200 uM): 599 nM | apparent KD of K4 kissing-loop reporter (input ligand: arginine 13.2 mM): 491 nM | apparent KD of K4 kissing-loop reporter (input ligand: none): 552 nM | apparent KD of K4 kissing-loop reporter [1]: 450 nM | apparent KD of K4 kissing-loop reporter [2]: 361 nM

UUUUAAAUGUCUGAUACCAGAGAAAAUAUAUGUAGUGAUGUUAUAUACAAAUUAAAUAAGCUCCCUUGGCAGCAGUAUUAAUUUU [AstrosExc-TheB#10]
apparent KD of K4 kissing-loop reporter (input ligand: FMN 200 uM): 628 nM | apparent KD of K4 kissing-loop reporter (input ligand: arginine 13.2 mM): 694 nM | apparent KD of K4 kissing-loop reporter (input ligand: none): 758 nM | apparent KD of K4 kissing-loop reporter [1]: 761 nM | apparent KD of K4 kissing-loop reporter [2]: 518 nM

UUUUAAUAAAAGGAUACCAGUACAAAUAAAGUACAUUAAUAGUAGAGUGAUGUUCUAAAGUACCCUUGGCAGCUUAGAGUAAGUU [#17 K4 Theophylline B Exclusion]
apparent KD of K4 kissing-loop reporter (input ligand: FMN 200 uM): 120 nM | apparent KD of K4 kissing-loop reporter (input ligand: arginine 13.2 mM): 253 nM | apparent KD of K4 kissing-loop reporter (input ligand: none): 160 nM | apparent KD of K4 kissing-loop reporter [1]: 228 nM | apparent KD of K4 kissing-loop reporter [2]: 85.1 nM

UUUUAUUAAUUCUUCUAGUGAUGUUAGAUACGAGGACCGGUACGGCCGCCACUCGCUUAUUGGUUUAUAAAUUUUAUAUUAUUUA [JR_SSTryptoA_Sub016]
apparent KD of K4 kissing-loop reporter (input ligand: FMN 200 uM): 292 nM | apparent KD of K4 kissing-loop reporter (input ligand: arginine 13.2 mM): 296 nM | apparent KD of K4 kissing-loop reporter (input ligand: none): 286 nM | apparent KD of K4 kissing-loop reporter [1]: 294 nM | apparent KD of K4 kissing-loop reporter [2]: 249 nM

UUUUGGUUCUGAGGAUAUUCGAAGAAAUAUAGUGAUGUUAUAUAAGGAGGAGGAUGGAGGGAGGAAGGAGAAGGCAGAAGAGGAG [ExFMNB.I]
apparent KD of K4 kissing-loop reporter (input ligand: FMN 200 uM): 890 nM | apparent KD of K4 kissing-loop reporter (input ligand: arginine 13.2 mM): 492 nM | apparent KD of K4 kissing-loop reporter (input ligand: none): 700 nM | apparent KD of K4 kissing-loop reporter [1]: 923 nM | apparent KD of K4 kissing-loop reporter [2]: 417 nM

UUUUUAAUCGCAGAUACCAGUCCAGAAUGAAUACUAUAGUGAUGUUAUAAUAAAGGGAAGGACCCUUGGCAGCUGUACUAUAUUU [AstrosSsTheB#6]
apparent KD of K4 kissing-loop reporter (input ligand: FMN 200 uM): 412 nM | apparent KD of K4 kissing-loop reporter (input ligand: arginine 13.2 mM): 308 nM | apparent KD of K4 kissing-loop reporter (input ligand: none): 398 nM | apparent KD of K4 kissing-loop reporter [1]: 300 nM | apparent KD of K4 kissing-loop reporter [2]: 299 nM

UUUUUAUGCAGUGAUGUUGCUAAUAUAACAGAGGAUAUGCAUUAAUGCAGAAGGCUGAAAUACUAUACUUUAAUAUAUUAAAUUU [JR_SSFMNA_Sub015]
apparent KD of K4 kissing-loop reporter (input ligand: FMN 200 uM): 94.3 nM | apparent KD of K4 kissing-loop reporter (input ligand: arginine 13.2 mM): 132 nM | apparent KD of K4 kissing-loop reporter (input ligand: none): 126 nM | apparent KD of K4 kissing-loop reporter [1]: 155 nM | apparent KD of K4 kissing-loop reporter [2]: 99.5 nM

UUUUUAUUCAGUGAUGUUGAAUUUAUAUCAGAGGAUAUGCAUAAAAGCAGAAGGCUGAAAUACUAUACUUUAAUAAAUUAUAUUU [JR_SSFMNA_Sub017]
apparent KD of K4 kissing-loop reporter (input ligand: FMN 200 uM): 249 nM | apparent KD of K4 kissing-loop reporter (input ligand: arginine 13.2 mM): 326 nM | apparent KD of K4 kissing-loop reporter (input ligand: none): 320 nM | apparent KD of K4 kissing-loop reporter [1]: 370 nM | apparent KD of K4 kissing-loop reporter [2]: 217 nM

UUUUUGGUUUAGAGUGAUGUUCCUUGUUUUCGAGGACCGGUACGGCCGCCACUCGAAAAGAAAAGAAAAGAAAAGAGUGAUGUUU [BDazzled - #1 SS Tryptophan A]
apparent KD of K4 kissing-loop reporter (input ligand: FMN 200 uM): 342 nM | apparent KD of K4 kissing-loop reporter (input ligand: arginine 13.2 mM): 252 nM | apparent KD of K4 kissing-loop reporter (input ligand: none): 362 nM | apparent KD of K4 kissing-loop reporter [1]: 311 nM | apparent KD of K4 kissing-loop reporter [2]: 258 nM
